Data on 3 molecules can be found in patent US20230212275.

The target in data set [1] is C3b (Complement Technology, Inc, A113) (UniProt P01024).
Data set [2] addresses C3b (Complement Technology, Inc, A113), P01024.

C3b (Complement Technology, Inc, A113), P01024, sequence (P01024 whole entry, looked up): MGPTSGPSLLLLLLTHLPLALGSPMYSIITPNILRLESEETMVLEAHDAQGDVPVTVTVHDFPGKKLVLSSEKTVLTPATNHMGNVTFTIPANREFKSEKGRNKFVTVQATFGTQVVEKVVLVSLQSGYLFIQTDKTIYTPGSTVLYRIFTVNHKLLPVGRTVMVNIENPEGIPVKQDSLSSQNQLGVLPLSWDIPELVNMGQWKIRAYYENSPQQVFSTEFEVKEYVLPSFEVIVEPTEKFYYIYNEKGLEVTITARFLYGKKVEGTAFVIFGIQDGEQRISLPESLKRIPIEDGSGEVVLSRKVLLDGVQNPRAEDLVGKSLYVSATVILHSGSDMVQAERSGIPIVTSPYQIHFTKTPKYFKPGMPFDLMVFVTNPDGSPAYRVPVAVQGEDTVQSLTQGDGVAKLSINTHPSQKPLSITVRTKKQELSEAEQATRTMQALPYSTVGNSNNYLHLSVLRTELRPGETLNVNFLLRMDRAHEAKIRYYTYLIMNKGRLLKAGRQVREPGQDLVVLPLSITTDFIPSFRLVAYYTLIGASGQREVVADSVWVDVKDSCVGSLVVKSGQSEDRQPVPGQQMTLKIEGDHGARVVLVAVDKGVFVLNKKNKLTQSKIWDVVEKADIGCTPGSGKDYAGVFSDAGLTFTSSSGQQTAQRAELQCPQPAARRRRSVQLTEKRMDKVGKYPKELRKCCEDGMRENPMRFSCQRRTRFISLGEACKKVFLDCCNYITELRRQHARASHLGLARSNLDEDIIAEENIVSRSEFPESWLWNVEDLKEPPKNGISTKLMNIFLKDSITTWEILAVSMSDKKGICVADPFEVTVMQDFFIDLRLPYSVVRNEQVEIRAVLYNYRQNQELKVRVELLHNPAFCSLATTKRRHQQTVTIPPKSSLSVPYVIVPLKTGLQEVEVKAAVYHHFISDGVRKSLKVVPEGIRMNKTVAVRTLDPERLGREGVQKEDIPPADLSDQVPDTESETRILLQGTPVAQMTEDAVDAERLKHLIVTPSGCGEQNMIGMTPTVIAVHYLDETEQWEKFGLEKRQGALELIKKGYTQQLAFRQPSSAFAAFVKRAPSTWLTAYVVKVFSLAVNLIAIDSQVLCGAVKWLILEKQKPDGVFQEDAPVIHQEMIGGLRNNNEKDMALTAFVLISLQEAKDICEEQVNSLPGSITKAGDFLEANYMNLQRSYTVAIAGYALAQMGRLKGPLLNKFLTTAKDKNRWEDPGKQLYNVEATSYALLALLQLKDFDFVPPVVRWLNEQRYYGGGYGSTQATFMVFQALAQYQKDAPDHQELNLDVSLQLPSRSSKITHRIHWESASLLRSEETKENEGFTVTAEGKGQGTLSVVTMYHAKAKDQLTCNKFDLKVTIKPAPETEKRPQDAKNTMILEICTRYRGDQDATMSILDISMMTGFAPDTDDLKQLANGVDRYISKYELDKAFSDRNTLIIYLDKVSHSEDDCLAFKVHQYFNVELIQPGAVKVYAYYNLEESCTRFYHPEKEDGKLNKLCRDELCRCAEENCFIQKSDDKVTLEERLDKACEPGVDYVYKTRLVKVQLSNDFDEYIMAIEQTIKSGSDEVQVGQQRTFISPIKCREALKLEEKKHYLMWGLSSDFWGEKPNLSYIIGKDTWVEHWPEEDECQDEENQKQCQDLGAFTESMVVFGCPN

Regarding “CFI secreted by HEK293 cells transduced with AAV2 bicistronic vector RC289 (coAflibercept-F2A-coCFI)”, in data set [1], the “C3b cleavage assay, iC3b ELISA” value was “CFI and FHL1 expressed from all bicistronic vectors is functional and can facilitate breakdown of C3b to iC3b”. On the same count and under the same terms, the entry for “CFI secreted by HEK293 cells transduced with AAV2 bicistronic vector RC313 (coCFI-F2A-coAflibercept)” is “CFI and FHL1 expressed from all bicistronic vectors is functional and can facilitate breakdown of C3b to iC3b”.

B1: recombinant CFI (Complement Technology, Inc, A138) (protein)
chain: KVTYTSQEDLVEKKCLAKKYTHLSCDKVFCQPWQRCIEGTCVCKLPYQCPKNGTAVCATNRRSFPTYCQQKSLECLHPGTKFLNNGTCTAEGKFSVSLKHGNTDSEGIVEVKLVDQDKTMFICKSSWSMREANVACLDLGFQQGADTQRRFKLSDLSINSTECLHVHCRGLETSLAECTFTKRRTMGYQDFADVVCYTQKADSPMDDFFQCVNGKYISQMKACDGINDCGDQSDELCCKACQGKGFHCKSGVCIPSQYQCNGEVDCITGEDEVGCAGFASVTQEETEILTADMDAERRRIKSLLPKLSCGVKNRMHIRRKRIVGGKRAQLGDLPWQVAIKDASGITCGGIYIGGCWILTAAHCLRASKTHRYQIWTTVVDWIHPDLKRIVIEYVDRIIFHENYNAGTYQNDIALIEMKKDGNKKDCELPRSIPACVPWSPYLFQPNDTCIVSGWGREKDNERVFSLQWGEVKLISNCSKFYGNRFYEKEMECAGTYDGSIDACKGDSGGPLVCMDANNVTYVWGVVSWGENCGKPEFPGVYTKVANYFDWISYHVGRPFISQYNV
Consider B1, for which the “C3b cleavage assay, iC3b ELISA” value in data set [2] was “C3b incubated with recombinant CFI and FHL1 served as a positive control; C3b breakdown requires the presence of CFI and FHL1”.
